# Source: US8313778B2, “Drug-delivery systems” (Evonik Roehm GmbH, priority 2005, dated 2012)
# carboxyfluorescein = carboxyfluorescein label (N-terminal); fluorescein = fluorescein label
# Tests used:
# HeLa cells [1] = assay type: cell-based, human; details: flow cytometry (FIG. 5)
# Description: Cells and reagents: The human HeLa carcinoma cells used are derived from the American Type Culture Collection (Manassas, Va., USA). HeLa cells were cultured in RPMI 1640 medium with stabilized glutamine and 2.0 g/l NaHCO3 (PAN Biotech, Aidenbach, Germany) and with 10% foetal calf serum (PAN Biotech). Chlorbromazine was purchased from (Calbiochem (Bad Soden, Germany), 5-(N-ethyl-N-isopropyl)amiloride (EIPA), methyl-β-cyclodextrin (MβCD) and MTT [3-(4,5-dimethylthiazol-2-yl)-2,5-diphenyltetrazolium bromide] was purchased from Sigma (Deisenhofen, Germany).
# Peptides: The peptides used were synthesized by EMC microcollections (Tübingen, Germany). The purity of all the peptides was checked by analytical HPLC. […]
# Stock solution of the peptides: The peptides were taken up in DMSO to result in a 10 mM solution. […] This took place by UV/VIS spectrometry with a 1:100 dilution of the stock solution with 0.1M Tris/HCl buffer (pH 8.8), the absorption at 492 nm was measured, and carboxyfluorescein was assumed to have an extinction coefficient of 75 000 l/(mol·cm). […]
# The peptides derived from human or bovine lactoferrin were prepared by solid-phase peptide synthesis. […] In order to determine whether the derived lactoferrin peptides have an activity as cell-penetrating peptides, the cell-associated fluorescence of the HeLa cells incubated with bLF peptides or hLF peptides was determined by flow cytometry. […]
# HeLa cells [2] = experiment: Cytotoxicity of hLF peptide, MTT test; assay type: cell-based, human; details: for ability of the cells to survive (MTT test): HeLa cells
# Description: However, relatively short incubation times of less than one hour were used when observing peptide uptake in live cells. In addition, therefore, the effect of longer incubation times and higher concentrations of the peptides on the ability of the cells to survive was tested. HeLa cells were for this purpose incubated with hLF peptide at a concentration of 1.25 μM to 160 μm for 0.5 or 6 h. The vitality of the cells was then determined with an MTT test.
Substance,uptake relative to the amount taken up of hLF peptide (HeLa cells [1]),"cytotoxic effects (MTT test) (HeLa cells [2]; HeLa cells incubated for only 30 min, up to a concentration of 40 μM (FIG. 6))",ability of the cells to survive (MTT test) (HeLa cells [2]; concentrations above 40 μM (FIG. 6)),"ability of the cells to survive (MTT test) (HeLa cells [2]; peptide concentration of 5 μM, after 6 h (FIG. 6))"
Fluo-FQWQRNMRKVR-CONH2 (fluorescein-FQWQRNMRKVR-NH2; listed as Homo sapiens) [LF2],one-tenth,–,–,–
Fluo-FQWQRNMRKVRGPPVS-CONH2 (fluorescein-FQWQRNMRKVRGPPVS-NH2; listed as Homo sapiens) [LF1],one-tenth,–,–,–
Fluo-KCFQWQRNMRKVRGPPVSCIKR-CONH2 (carboxyfluorescein-KCFQWQRNMRKVRGPPVSCIKR-NH2; cysteine pairing not given here; listed as Homo sapiens) [hLF peptide],–,No cytotoxic effects,killed,slightly reduced
